In publication PMC6856059 (Nature, 2019):

Target: the molecule itself
Assay: cryo-EM structure

B1: N-terminally truncated zebrafish NKCC1 (domain or fragment)
chain: KFGWIKGVLVRCMLNIWGVMLFIRMTWIVGQAGIAYSCIIVIMATVVTTITGCSTSAIATNGFVRGGGAYYLISRSLGPEFGGSIGLIFAFANAVAVAMYVVGFAETVVELLMDSGLLMIDQTNDIRVIGTITVILLLGISVAGMEWEAKAQIFLLVILITAIFNYFIGSFIAVDSKKKFGFFSYDAGILAENFGPDFRGQTFFSVFSIFFPAATGILAGANISGDLADPQMAIPKGTLLAILITGLVYVGVAISAGACIVRDATGIESNFTLISNCTDAACKYGYDFSSCRPTVEGEVSSCKFGLHNDFQVMSVVSGFSPLISAGIFSATLSSALASLVSAPKVFQALCKDNIYPGIAIFGKGYGKNNEPLRGYFLTFGIALAFILIAELNVIAPIISNFFLASYALINFSVFHASLANSPGWRPSFKYYNMWASLAGAILCCVVMFIINWWAALLTNVIVLSLYIYVSYKKPDVNWGSSTQALTYHQALTHSLQLCGVADHIKTFRPQCLVMTGAPNSRPAILHLVHAFTKNVGLMLCGHVRISSRRPNFKELNSDMLRYQRWLLNNNSKAFYTCVVAEDLRQGTQYMLQAAGLGRLRPNTLVIGFKNDWRTGDIKEVETYINLIHDAFDFQYGVVILRLREGLDISHIQGQDDSSGMKDVVVSVDISKDSDGDSSKPSSKATSVQNSPAVQKDEDDDGKAHTQPLLKKDKKSPTVPLNVADQRLLDASQQFQQKQGKGTVDVWWLFDDGGLTLLIPYLIANKKKWKDCKIRVFIGGKINRIDHDRRAMATLLSKFRIDFSDITVLGDINTKPKSEGLTEFAEMIEPYKLREDDMEQEAAEKLKSEEPWRITDNELELYKAKGNRQIRLNELLKEHSSTANLIVMSMPLARKGAVSSALYMAWLDTLSKDLPPILLVRGNHQSVLTFYS
- stoichiometry N: 2
